Measurements from doi:10.1101/2022.01.26.477937 (bioRxiv, 2022).

Key:
[1] = target: T1, SARS-CoV-2 Wuhan-Hu-1 spike receptor-binding domain (RBD) (SARS-CoV-2 Wuhan-Hu-1, UniProt P0DTC2); experiment: ELISA
[2] = target: T1, SARS-CoV-2 Wuhan-Hu-1 spike …; experiment: crystal structure
[3] = target: T1, SARS-CoV-2 Wuhan-Hu-1 spike …; experiment: BLI

Binder	binding result [2]	further results
NCV2SG53 monoclonal antibody (human IgG) (antibody, V domains shown) VH: QVQMVESGGGLVRPGGSLRLSCAASGFTFSDYYMSWIRQAPGKGLEWISYISSSGSSMNYADSVKGRFTISRDNAKNSLFLQMNSLRAEDTAVYYCAREFDLTKIIMVPPYWGQGTLVTVSS VL: AIQLTQSPSSLSASVGDRVTITCRASQGISSYLAWYQQKPGKAPKVLIYAASTLQSGVPSRFSGSGSGTDFTLTISSLQPEDFATYYCQQLKSYPLTFGGGTKVEIT	–	binding result [1]: binds
Fab fragment of NCV2SG53 (Fab, V domains shown) VH: QVQMVESGGGLVRPGGSLRLSCAASGFTFSDYYMSWIRQAPGKGLEWISYISSSGSSMNYADSVKGRFTISRDNAKNSLFLQMNSLRAEDTAVYYCAREFDLTKIIMVPPYWGQGTLVTVSS VL: AIQLTQSPSSLSASVGDRVTITCRASQGISSYLAWYQQKPGKAPKVLIYAASTLQSGVPSRFSGSGSGTDFTLTISSLQPEDFATYYCQQLKSYPLTFGGGTKVEIT	binds	–
Fab fragment from NCV2SG48 (Fab, V domains shown) VH: EVQLVESGGGLIQPGGSLRLSCAASGFIVSRNYMNWVRQAPGKGLEWVALIYSGGSTFYADSVKGRFTISRDNSKNTLYLQMNSLRAEDTAVYYCARDLVVYGLDYWGQGTLVTVSS VL: AIQLTQSPSSLSASVGDRVTITCRASQGISSHLAWYQQKPGKAPKLLIFAASTLQSGVPSRFSGSGSGTDFTLTISSLQPEDFATYYCQHLNSNPPITFGQGTRLEIK	binds	–
NCV2SG48 monoclonal antibody (human IgG) (antibody, V domains shown) VH: EVQLVESGGGLIQPGGSLRLSCAASGFIVSRNYMNWVRQAPGKGLEWVALIYSGGSTFYADSVKGRFTISRDNSKNTLYLQMNSLRAEDTAVYYCARDLVVYGLDYWGQGTLVTVSS VL: AIQLTQSPSSLSASVGDRVTITCRASQGISSHLAWYQQKPGKAPKLLIFAASTLQSGVPSRFSGSGSGTDFTLTISSLQPEDFATYYCQHLNSNPPITFGQGTRLEIK	–	binding result [3]: binds
